Biological target: Purified recombinant EV CrmD protein (ectromelia virus)

B1: mCXCL14 (ligand)
chain: SKCKCSRKGPKIRYSDVKKLEMKPKYPHCEEKMVIVTTKSMSRYRGQEHCLHPKLQSTKRFIKWYNAWNEKRRVYEE
Question: For B1, which Kd is on record?
Answer: 3.2 nM

B2: hCXCL14 (ligand)
chemokine: SKCKCSRKGPKIRYSDVKKLEMKPKYPHCEEKMVIITTKSVSRYRGQEHCLHPKLQSTKRFIKWYNAWNEKRRVYEE
Question: For B2, which Kd is on record?
Answer: 7.1 nM

B3: hCXCL13 (ligand)
chemokine: VLEVYYTSLRCRCVQESSVFIPRRFIDRIQILPRGNGCPRKEIIVWKKNKSIVCVDPQAEWIQRMMEVLRKRSSSTLPVPVFKRKIP
Question: Which Kd does the source give for B3 here?
Answer: 7.4 nM

B4: hCCL28 (ligand)
chemokine: SEAILPIASSCCTEVSHHISRRLLERVNMCRIQRADGDCDLAAVILHVKRRRICVSPHNHTVKQWMKVQAAKKNGKGNVCHRKKHHGKRNSNRAHQGKHETYGHKTPY
Question: B4 was tested. Which Kd did it give?
Answer: 2.8 nM

B5: mCCL27 (ligand)
chain: LPLPSSTSCCTQLYRQPLPSRLLRRIVHMELQEADGDCHLQAVVLHLARRSVCVHPQNRSLARWLERQGKRLQGTVPSLNLVLQKKMYSHPQQQN
Question: How did the Kd turn out when B5 was run?
Answer: 8.5 nM

B6: mCCL25 (ligand)
chain: QGAFEDCCLGYQHRIKWNVLRHARNYHQQEVSGSCNLRAVRFYFRQKVVCGNPEDMNVKRAMRILTARKRLVHWKSASDSQTERKKSNHMKSKVENPNSTSVRSATLGHPRMVMMPRKTNN
Question: For B6, which Kd is on record?
Answer: 3.2 nM
